This data set in a line: protein stability index of a GFP-peptide fusion (yeast GPS) (PSI 1-4); higher = more stable; sorted into four equal gates, so the index is relative within each strain. Put shortly:
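The protein stability index of a peptide was calculated by multiplying its read frequency in each gate by that gate's number and adding the products. The peptides were tiled 17-residue stretches of yeast proteins, fused downstream of GFP on a Cherry-expressing plasmid and carried in yeast as a pooled library. Mid-log cultures in leucine-free medium were sorted into four equal gates by GFP/Cherry ratio, and each gate's plasmids were PCR-amplified and Illumina-sequenced.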

The results in this text go back to the supplement of paper PMC9732359.

± gives the uncertainty stated by the source.

DQFQWILRKPGKDCKLQ [RRI2]: the protein stability index (doa10∆) came to 2.62 ± 0.19, the protein stability index (pdr5∆) amounted to 3.25 ± 0.17, the protein stability index (san1∆) came out at 3.26 ± 0.16 and the protein stability index (ubr1∆) stood at 3.3 ± 0.16.

Regarding DQHVINILWAIYNSASK [YCS4], the protein stability index runs as follows: (doa10∆) 1.69 ± 0.044; (pdr5∆) 2.22 ± 0.048; (san1∆) 1.63 ± 0.077; (ubr1∆) 1.59 ± 0.041.

Consider DQIAVCEISGSIEQLRN [BRN1], for which the protein stability index by setting is: (doa10∆) 3.27 ± 0.16; (pdr5∆) 3.26 ± 0.19; (san1∆) 3.11 ± 0.19.

In turn, DQNNKKMVGLRGFNNQI [SNF2] showed a protein stability index (doa10∆) of 3.35 ± 0.065, a protein stability index (pdr5∆) of 3.22 ± 0.072, a protein stability index (san1∆) of 3.2 ± 0.072 and a protein stability index (ubr1∆) of 3.37 ± 0.044.

Regarding DQSISKLQSWDKVSSCF [NNF1], the protein stability index runs as follows: (doa10∆) 1.51 ± 0.072; (pdr5∆) 1.59 ± 0.069; (san1∆) 1.42 ± 0.1; (ubr1∆) 1.82 ± 0.053.

For DQVLNLCLTEFENCYLE [FAS1], the protein stability index runs as follows: (doa10∆) 3.15 ± 0.1; (pdr5∆) 3.2 ± 0.099; (san1∆) 3.18 ± 0.14; (ubr1∆) 3.25 ± 0.048.

In the case of DRCVDPEDPYFNTLVRI [DIS3], the protein stability index was determined as 3.39 ± 0.11 (doa10∆), 3.41 ± 0.11 (pdr5∆), 3.48 ± 0.058 (san1∆) and 3.4 ± 0.048 (ubr1∆).

DRFKPNLDIAKDLIRTD [MED4] registered a protein stability index (doa10∆) of 3.38 ± 0.19, a protein stability index (pdr5∆) of 3.34 ± 0.19, a protein stability index (san1∆) of 2.82 ± 0.11 and a protein stability index (ubr1∆) of 2.96 ± 0.14.

DRGIANIRNNIESQNLD [SRB4]: the protein stability index (doa10∆) amounted to 3.12 ± 0.14, the protein stability index (pdr5∆) came to 3.34 ± 0.12, the protein stability index (san1∆) was 2.98 ± 0.11 and the protein stability index (ubr1∆) turned out to be 3.07 ± 0.067.

DRKSIMPLKILLATKQH [CSN12]: the protein stability index reads like this: (doa10∆) 1.9 ± 0.15; (pdr5∆) 1.19 ± 0.055; (san1∆) 1.53 ± 0.11; (ubr1∆) 1.42 ± 0.058.

Regarding DRNNSTNQIFQSRRYNL [SIN4], the protein stability index by setting is: (doa10∆) 2.78 ± 0.047; (pdr5∆) 2.93 ± 0.049; (san1∆) 2.71 ± 0.053; (ubr1∆) 2.83 ± 0.039.

Regarding DRVVSSDSLDIAQGIDL [SRP72], the protein stability index came to 2.85 ± 0.069 (doa10∆), 2.6 ± 0.062 (pdr5∆), 2.27 ± 0.079 (san1∆) and 3 ± 0.079 (ubr1∆).

Turning to DRYGNRYFWLDHNGVPF [ITC1], the protein stability index (doa10∆) was determined as 2.8 ± 0.094, the protein stability index (pdr5∆) was determined as 3.18 ± 0.098, the protein stability index (san1∆) turned out to be 2.92 ± 0.051 and the protein stability index (ubr1∆) is 2.78 ± 0.082.

Take DSEKHIDFAPTSPFGGA [RPS9A]: the protein stability index reads like this: (doa10∆) 2.6 ± 0.06; (pdr5∆) 2.65 ± 0.06; (san1∆) 2.69 ± 0.068; (ubr1∆) 2.68 ± 0.041.

DSETSDPNEVEIKKLLA [DIS3] showed a protein stability index (doa10∆) of 2.9 ± 0.075, a protein stability index (pdr5∆) of 3.07 ± 0.069, a protein stability index (san1∆) of 2.82 ± 0.075 and a protein stability index (ubr1∆) of 3.27 ± 0.094.

Consider DSIASVLSPDSNIMSDS [GAL11], for which the protein stability index came out at 2.74 ± 0.1 (doa10∆), 2.98 ± 0.073 (pdr5∆), 3.03 ± 0.064 (san1∆) and 3.09 ± 0.099 (ubr1∆).

As for DSIGSTRVEGSGGGDSE [RPT6], the protein stability index runs as follows: (doa10∆) 2.6 ± 0.1; (pdr5∆) 2.65 ± 0.11; (san1∆) 3.1 ± 0.065; (ubr1∆) 2.97 ± 0.064.

On to DSILNYAKSEFDNVASV [ECM29], for which the protein stability index amounted to 3.22 ± 0.11 (doa10∆), 3.14 ± 0.15 (pdr5∆), 3.04 ± 0.087 (san1∆) and 3.15 ± 0.18 (ubr1∆).

In the case of DSKKIKVDSPDDPFMTK [GAL11], the protein stability index is 2.55 ± 0.075 (doa10∆), 2.57 ± 0.074 (pdr5∆), 2.5 ± 0.057 (san1∆) and 2.82 ± 0.04 (ubr1∆).

Regarding DSLASELTLAEQQVKEA [SMC4], the protein stability index amounted to 3.24 ± 0.21 (doa10∆), 3.53 ± 0.11 (pdr5∆), 3.23 ± 0.15 (san1∆) and 3.39 ± 0.23 (ubr1∆).

As for DSNYKWDLSVEDALYLG [PRE2], the protein stability index runs as follows: (doa10∆) 3.34 ± 0.085; (pdr5∆) 3.35 ± 0.082; (san1∆) 3.33 ± 0.07; (ubr1∆) 3.39 ± 0.049.

Take DSQDYILSINAIDYEPE [SMC1]: the protein stability index reads like this: (doa10∆) 3.25 ± 0.068; (pdr5∆) 3.06 ± 0.058; (san1∆) 3 ± 0.046; (ubr1∆) 3.02 ± 0.038.

Regarding DSRLSRKQIDETQVLVS [BRR2], the protein stability index stood at 1.61 ± 0.055 (doa10∆), 1.83 ± 0.073 (pdr5∆), 1.82 ± 0.072 (san1∆) and 2.13 ± 0.041 (ubr1∆).

For DSSGVNDLHHSEKKYAE [RPN3], the protein stability index (doa10∆) was 2.69 ± 0.11, the protein stability index (pdr5∆) was determined as 3.24 ± 0.16 and the protein stability index (san1∆) was determined as 2.88 ± 0.21.

On to DSTDNENSGKEMDEKSY [LIN1], for which the protein stability index was found to be 3.26 ± 0.14 (pdr5∆), 2.88 ± 0.29 (san1∆) and 3.49 ± 0.14 (ubr1∆).

For DSTNLSDDAAQFMKRFP [ECM29], the protein stability index is 2.65 ± 0.11 (doa10∆), 2.79 ± 0.073 (pdr5∆), 1.45 ± 0.092 (san1∆) and 3.06 ± 0.1 (ubr1∆).

As to DSVILASSKAVTRGISV [PRE1], the protein stability index amounted to 2.14 ± 0.045 (doa10∆), 2.42 ± 0.048 (pdr5∆), 2.28 ± 0.056 (san1∆) and 2.34 ± 0.041 (ubr1∆).

On to DSYGQGSMTKTWYVGNS [SSN2], for which the protein stability index by setting is: (doa10∆) 2.94 ± 0.13; (pdr5∆) 3.09 ± 0.16; (san1∆) 3.34 ± 0.16; (ubr1∆) 3.05 ± 0.088.

In turn, DTIDNVKSKIQDKEGIP [RPS31] yielded a protein stability index (doa10∆) of 3.22 ± 0.098, a protein stability index (pdr5∆) of 3.46 ± 0.089, a protein stability index (san1∆) of 3.38 ± 0.05 and a protein stability index (ubr1∆) of 3.57 ± 0.075.

Take DTLKLRENLHILNEVFT [RRP6]: the protein stability index reads like this: (doa10∆) 2.26 ± 0.092; (pdr5∆) 2.87 ± 0.06; (san1∆) 2.59 ± 0.058; (ubr1∆) 2.4 ± 0.051.

With DTLNETNLKMKRKWSYV [RRP43], the protein stability index reads like this: (doa10∆) 2.24 ± 0.061; (pdr5∆) 2.56 ± 0.04; (san1∆) 2.98 ± 0.1; (ubr1∆) 2.61 ± 0.073.

DTNVVLQAIDLLENPNC [DIS3]: the protein stability index (doa10∆) is 2.84 ± 0.07, the protein stability index (pdr5∆) is 2.75 ± 0.063, the protein stability index (san1∆) came to 2.63 ± 0.074 and the protein stability index (ubr1∆) amounted to 2.73 ± 0.046.

As to DTPEGEACGLVKNLALM [RET1], the protein stability index by setting is: (doa10∆) 2.14 ± 0.098; (pdr5∆) 2.01 ± 0.13; (san1∆) 3.21 ± 0.1; (ubr1∆) 1.71 ± 0.28.

On to DTRFGGRMDMTRLYDYE [SSN2], for which the protein stability index by setting is: (doa10∆) 3.14 ± 0.1; (pdr5∆) 3.23 ± 0.081; (san1∆) 3.47 ± 0.045; (ubr1∆) 3.21 ± 0.061.

Consider DTRITHLLRQTNAFLDS [SNF2], for which the protein stability index came out at 1.5 ± 0.037 (doa10∆), 1.47 ± 0.033 (pdr5∆), 1.54 ± 0.064 (san1∆) and 1.61 ± 0.024 (ubr1∆).

In the case of DTVSWFKQKYDADVLDK [RPL11A], the protein stability index runs as follows: (doa10∆) 2.06 ± 0.044; (pdr5∆) 1.74 ± 0.044; (san1∆) 1.64 ± 0.077; (ubr1∆) 1.97 ± 0.039.

Take DVECIKAKSHFTNIISR [YJL039C/NUP192]: the protein stability index is, setting by setting: (doa10∆) 3.04 ± 0.092; (pdr5∆) 3.1 ± 0.098; (san1∆) 2.73 ± 0.078; (ubr1∆) 2.97 ± 0.056.
